Assay results taken from article PMC11602165, “A bacterial transcription activator dedicated to the expression of the enzyme catalyzing the first committed step in fatty acid biosynthesis” (Nucleic Acids Research, 2024).
Values joined by “and” are separate entries in the source; they are usually repeats but may differ in a detail not shown here. Equal entries are not always repeated. One block for each molecule: values may come before it.

Assays:
[1] = biological target: AccR (LysR-type transcriptional regulator, SO_0839) (Shewanella oneidensis, UniProt Q8EIK0); assay: ITC in HEPES buffer (Kd […]); also MST ([…]); no binding seen by ITC in Tris buffer
[2] = biological target: the molecule itself; assay: crystal structure; AccR EBD (residues 86-303), apo form, hanging-drop vapor diffusion, 27.5% PEG 4000, 100 mM HEPES pH 7.0, 20°C; space group C2, one dimer in the asymmetric unit
[3] = biological target: the molecule itself; assay: SEC; His-tagged recombinant AccR purified from E. coli run on a Superdex 200HR 10/30 column (FPLC); two peaks with estimated molecular weights of ~67 and ~140 kDa

Kd [1]: 8.4 ± 1.3 µM
Molecule: CC(=O)SCCNC(=O)CCNC(=O)[C@H](O)C(C)(C)COP(=O)(O)OP(=O)(O)OC[C@H]1O[C@@H](n2cnc3c(N)ncnc32)[C@H](O)[C@@H]1OP(=O)(O)O [acetyl-CoA]

B1: AccR effector-binding domain (EBD, residues 86-303) (domain or fragment, Shewanella oneidensis, UniProt Q8EIK0 86-303, looked up)
chain: THDDVSGSLRIAIPVSFSQELIANLCSGFMRLYPNVELDVQFTDNDIGLVGEGYDIAIKYGPLQSSDLVARLLFERQPILVASPGYLKTRGTPATPKELSDHSGILLGTSRSAPIWPLGKGTRKTMVSFQRKVRVNSPIMVKQLALDDFGIAMLSNSACKTELANGQLVPILQEWPMEPFKVYGVYSSRRQLATNISAFLDFFVKRFSSQESLQSLMG
notes: the model holds residues 89-302 (subunit A) and 90-300 (subunit B); The methods describe expression in M9 medium with selenomethionine, but also say that diffraction data were collected with native protein crystals; also called AccR EBD; regulatory domain; source: E. coli BL21(DE3), pET-28a, purified (Ni-NTA, size-exclusion chromatography)
binding result [2]: binds

B2: AccR (SO_0839), LysR-type transcriptional regulator, His6-tagged recombinant (natural protein, Shewanella oneidensis, UniProt Q8EIK0 1-303, looked up)
chain: MPDLNGMMLFAAVVRAKGFSQAARETGHPKSTISRKIAQLEEELGVRLLQRDTRNLSLTQVGALFYQHCDSIRNEVEAAKAVIESTHDDVSGSLRIAIPVSFSQELIANLCSGFMRLYPNVELDVQFTDNDIGLVGEGYDIAIKYGPLQSSDLVARLLFERQPILVASPGYLKTRGTPATPKELSDHSGILLGTSRSAPIWPLGKGTRKTMVSFQRKVRVNSPIMVKQLALDDFGIAMLSNSACKTELANGQLVPILQEWPMEPFKVYGVYSSRRQLATNISAFLDFFVKRFSSQESLQSLMG
notes: AccR (SO_0839), LTTR of 303 amino acids, Shewanella oneidensis; full-length; calculated molecular weight of the recombinant protein 35.6 kDa; The methods describe growth of the BL21(DE3) cells in M9 medium supplemented with selenomethionine; also called ACCase regulator; His-tagged AccR; source: E. coli BL21(DE3), pET-28a, purified (Ni-NTA, size-exclusion chromatography); not shown: His6, …
stoichiometry N [3]: 2 and 4
